The nature of series [1]: Evaluation of solubility in water. Type of series: physicochemical. The procedure: 25 mg of SN38-linker A-MiniAp4 were dissolved in H2O, showing a completely transparent solution. This means that SN38-linker A-MiniAp4 has a solubility in water higher than 5 mg/mL, more than 400-fold the solubility in water described for SN38 (Mol. Pharmaceutics, 2016, 13, 379-390).
Series [2] in a line: Turbidimetric aqueous solubility. The class given is physicochemical. To be noted: for solubility at 2 hr: kinetic from dmso stock, 0.01 M phosphate buffered saline pH 7.4, 1% DMSO, 2 hr at 37° C., absorbance 620 nm. The procedure:
Each test compound concentration was then further diluted 1 in 100 in buffer (0.01 M phosphate buffered saline pH 7.4) so that the final DMSO concentration was 1% and the final test compound concentrations were 1, 3, 10, 30 and 100 μM. The experiment was performed at 37° C. and each concentration was incubated in 7 replicate wells. The plates were incubated for 2 hr at 37° C. before the absorbance was measured at 620 nm.

The nature of series [3]: Maximum tolerated dose, single intravenous injection. Type of series: in vivo, mice. To be noted: mouse, in vivo; single intravenous injection, athymic nude mice, observed 14 days. As to the method: (§1) To evaluate the toxicity of irinotecan and SN38-linker A-MiniAp4 (Ia) (also named G2B-001) in athymic nude mice (10 week old; 8 mice per group) first the maximum tolerated dose (MTD) of SN38-linker A-MiniAp4 (Ia) was studied, by intravenous injection. Three mice were injected at dose levels 200, 500 and 1000 mg/kg, and observed for symptoms including death or weight lost during the following 14 days. The MTD was established at 200 mg/kg.

Series [4] has as its system athymic nude mice. The description is as above. The conditions noted are these: 200 mg/kg single i.v., following 14 days, compared to untreated control animals. Type of series: in vivo. The procedure: as §1
Series [5] concerns athymic nude mice. Nature of the series: In vivo tolerability, repeated intravenous injections (mouse weight). The conditions noted are these: 30 mg/kg i.v., 9 doses (days 1, 3, 5, 8, 10, 12, 29, 31, 33), weight until day 40. The procedure:
Upon the establishment of the MTD of SN38-linker A-MiniAp4 (Ia) at single i.v, we compared mean weight of mice treated with irinotecan at a clinically relevant multi-dose regimen, and SN38-linker A-MiniAp4 (Ia)at an equimolar dose. Briefly, mice were treated with either irinotecan 10 mg/kg (15 doses, on days 1-5, 8-12 and 29-33), by the intraperitoneal (i.p.) route, or with a SN38-linker A-MiniAp4 (Ia) 30 mg/kg (9 doses, on days 1, 3, 5, 8, 10, 12, 29, 31, 33), intravenously (i.v.). This regimen was considered the maximum feasible number of i.v. injections in mice. Control mice were treated with saline i.p. on days 1-5, 8-12 and 29-33.
Mouse weight was measured until day 40 and mean and SD values are represented for each group in FIG. 19. […] Weight of SN38-linker A-MiniAp4 (Ia) (Ia) treated mice was similar to that of mice treated with clinically relevant dosages of irinotecan.

Series [6] can be described thus: Stability in human serum at 37° C. in vitro. Type of series: in vitro ADME. The conditions noted are these: 200 μM in HBSS, 90% human serum. The procedure:
Regarding to the stability in human serum of the SN38-linker A-MiniAp4 (Ia) (example 7), it was incubated at a concentration of 200 μM in buffer HBSS at 37° C. in the presence of 90% human serum. At a range of times, 100 μL aliquots were collected to which 400 μL cold methanol was added in order to precipitate the serum proteins. The samples were centrifuged at 3000 rpm at 4° C. during 30 min, filtered and analyzed by UPLC-PDA and UPLC-MS to determine the degree of degradation of SN38-Linker A-MiniAp4 (Ia).

A short description of series [7]: Stability in human plasma at 37° C. in vitro. The class given is in vitro ADME. As to the method: (§2) To assess the stability of the SN38-linker A-MiniAp4 (Ia) (example 7) in human, mouse, dog and rat plasma at 37° C., the compound was prepared at 200 μM in plasma samples in triplicates at each timepoint (0 h, 1 h, 4 h, 8 h and 24 h) for each species. Once the incubation was finalised, plasma proteins were immediately precipitated by adding chilly methanol (ratio 4:1, methanol:plasma) and tubes were shacked for few seconds (vortex). Samples were centrifuged at 3,000 rpm for 30 minutes at 4° C., supernatants were collected, transferred to the injection plate and injected to LC-MS system.
(§3) Compound recovery was determined by comparing the analyte response in a biological sample that is spiked with the analyte and processed, with the response in a methanol sample that is spiked with the analyte and processed.
(§4) Plasma stability assay was performed using blank plasma from untreated volunteers/animals. K2-EDTA was used as anticoagulant. Human blank plasma used was obtained from Hospital Sant Pau, mouse blank plasma used was obtained from Janvier, dog blank plasma used was obtained from Isoquimen and rat blank plasma used were obtained from Draconis Pharma.
To assess the stability of the G2B-001 lineal (Ib) (example 16) in human plasma at 37° C., the compound was prepared at 200 µM in plasma samples in triplicates at each timepoint (0 h, 0.5 h, 1 h, 2 h, 4 h, 8 h and 24 h). Once the incubation was finalised, plasma proteins were immediately precipitated by adding chilly methanol (ratio 4:1, methanol:plasma) and tubes were shacked for few seconds (vortex). Samples were centrifuged at 3,000 rpm for 30 minutes at 4° C., supernatants were collected, transferred to the injection plate and injected to LC-MS system. Compound recovery was determined by comparing the analyte response in a biological sample that is spiked with the analyte and processed, with the response in a methanol sample that is spiked with the analyte and processed.
Plasma stability assay was performed using blank plasma from untreated volunteers. K2-EDTA was used as anticoagulant. Human blank plasma used was obtained from Hospital Sant Pau.

Series [8] in a line: Stability in mouse plasma at 37° C. in vitro. Type of series: in vitro ADME. As to the method:
as §2, §3, §4

The nature of series [9]: Stability in dog plasma at 37° C. in vitro. Type of series: in vitro ADME. The procedure:
as §2, §3, §4

Series [10] is described as follows: Stability in rat plasma at 37° C. in vitro. The class given is in vitro ADME. The procedure: as §2, §3, §4

In brackets after ≈: the same amount, converted by molar mass. Read-outs that look alike come from different tables or passages of the source. *1 amine or outer side, *2 acyl side, *3 side chain or, on linkers, in order; H or OH if unused. Where a SMILES comes first, the peptide text is derived from it. Bridges are numbered along the chain shown (N, C = ends). [ ]: non-standard residue; d: D form. The star is where a group is joined. X1 = CCc1c2c(nc3ccc(O)cc13)-c1cc3c(c(=O)n1C2)COC(=O)[C@@]3(CC)OC(=O)CCCCn1cc(CCCC(=O)NCCCOCCOCCOCCCN*)nn1; Suc = O=C(CCC(=O)[*:2])[*:1]; Dap = NC[C@H](N)C(=O)O

With `CCc1c2c(nc3ccc(O)cc13)-c1cc3c(c(=O)n1C2)COC(=O)[C@@]3(CC)OC(=O)CCCCn1cc(CCCC(=O)NCCCOCCOCCOCCCNC(=O)CCC(=O)N[C@H]2CNC(=O)C[C@@H](C(N)=O)NC(=O)[C@H](CC(C)C)NC(=O)[C@H](C)NC(=O)[C@H]([C@@H](C)O)NC(=O)[C@H](CCC(=O)O)NC(=O)[C@@H]3CCCN3C(=O)[C@H](C)NC(=O)[C@H](CCCCN)NC2=O)nn1` [SN38-linker A-MiniAp4 (Ia)] ({X1-Suc}-[Dap]KAPETALD-NH2; lactam 1-9), in series [1] (versus literature solubility of SN38 (Mol. Pharmaceutics, 2016, 13, 379-390)), the “solubility in water relative to the solubility in water described for SN38” value was “more than 400 fold”. Further, in [1] (water, 25 mg dissolved in H2O, completely transparent solution), the solubility was over 5000 µg/mL. For the same compound, the solubility at 2 hr was 30 µM (≈ 54.8 µg/mL) in series [2] (37 °C, pH 7.4, aqueous buffer, read-out: Turbidity aqueous solubility, Estimated precipitation range, Lower bond); 100 µM (≈ 183 µg/mL) in [2] (37 °C, pH 7.4, aqueous buffer, read-out: Turbidity aqueous solubility, Estimated precipitation range, Upper bond); 65 µM (≈ 119 µg/mL) in series [2] (aqueous buffer, read-out: Turbidity aqueous solubility, Estimated precipitation range, Calculated mid-range). Also, the “solubility problems in turbidimetric solubility test” value in series [2] (up to 100 micromolar) is on record as “No solubility problems”. In addition, the MTD at 14 days in [3] stood at 200 mg/kg. Further, the “symptoms including death or weight lost at the MTD” value with athymic nude mice [4] was “survived and did not show immediate symptoms of distress or significant weight lost”. Moreover, in the series on athymic nude mice [5], the “mouse weight versus controls” value was “did not lose significant weight”. The half-life at 200 μM in [6] is over 24 h; in series [7], over 24 h; in series [8], 8 to 24 h; in [9] it was 8 to 24 h; in series [10] it was over 24 h. The “degree of degradation in human serum” value in series [6] (24 h) is “No significant degradation”. For the same compound, the recovery at 24 h, 200 μM was found to be 65.1% in series [7] (24 h, read-out: % Recovery after 24 h in human plasma); 57.1% in [8] (24 h, read-out: % Recovery after 24 h in mouse plasma); 68.3% in [9] (24 h, read-out: % Recovery after 24 h in dog plasma); 61.2% in [10] (24 h, read-out: % Recovery after 24 h in rat plasma).

Source of the values: patent publication US20240285784A1, “PEPTIDIC CONJUGATES OF SN38 USEFUL IN THE TREATMENT OF CANCER” (FUNDACIÓ INSTITUT DE RECERCA BIOMÈDICA (IRB BARCELONA), priority 2020, published 2024).
